Assay: soluble on expression in E. coli; label from the status in PepcDB or PDB records

Sequence	soluble on expression in E. coli
MGSDKIHHHHHHMRILTFTGKGGVGKTSVSAATAVRLSEMGHRTLVLSTDPAHSLSDSFNIQLGAEPTKIKENLHAIEVNPYVDLKQNWHSVQKYYTRIFMAQGVSGVMADEMTILPGMEELFSLLRIKRYKSAGLYDALVLDTAPTGETLRLLSLPDTLSWGMKAVKNVNKYIVRPLSKPLSKMSDKIAYYIPPEDAIESVDQVFDELEDIREILTDNVKSTVRLVMNAEKMSIKETMRALTYLNLYGFKVDMVLVNKLLDAQENSGYLEKWKGIQQKYLGEIEEGFSPLPVKKLKMYDQEIVGVKSLEVFAHDIYGDTDPSGMMYDEPPIKFVRQGDVYEVQLKLMFANPVDIDVWVTGDELFVQIGNQRKIITLPVSLTGLEPGDAVFKDKWLHIPFDLEKQGQHHRTREYNKA	not soluble
MNWYELYWQRITPLHLFLWPVSQLLILFQSVRRFLYRRAILTSIHLPVPIIIIDSITTDSPVKTSLIIQIANILKAAGLRPGIISRGYPDNHRPPTRVTISSHPHLTGEKSLLLTYHLRETCPVWIGYDRIETAKALLNAHKECNVLICDDGLQDLRLQRDFEAVIVDTSVINSGNGLIMPAGPLRDSFARLKHTDAVILAGHQRRIPDITDEIRTIHTRPQKEHFFNLSWPELTADAAGLAGKRIHAIVCDPDTQNFLDNLEFLKLTVTPRVFPENHHFIATDFQSDEAEIILIPEEDAVKCLSLHDDRIWVLQQEYRVDPGLREIILKKLREKFMDPKLLDILVCPLCKGSLIYKKDRLELICKADRLAYPIRDGIPVMLEDEARKLPDEEEIKLEHHHHHH	not soluble
MLHAKIETLGVDPQNGSVVVLLRTENDKLLPIVIGPLEAHHIVVALQGEKPPRPLTPDLLLSVMEMLQAKLKRVEIVDLRDGTFYARLILEHRGIELEVDARPSDAMALALRAGAPILVAEEVVEKAGVEEANIRPHGAAEA	soluble
GMMYTNDNRIVMTLDAGGTNFVFSAIQGGKEIADPVVLPACADCLDKCLGNLVEGFKAIQAGLPEAPVAISFAFPGPADYQAGIIGDLPNFPSFRGGVALGPFLEDIFGIPVFINNDGSLFAYGEALTGVLPEINRRLREAGSTKRYKNLLGVTLGTGFGAGVVIDGELLRGDNAAGGYVWCLRNKKYPEYIVEESVSIRAVMRVYAERSGDAGARTPKEIFEIAEGIRPGNREAAIAAFEELGEMAGDALASAITLIDGLIVIGGGLSGASKYILPVLLKEMNAQTGMMDGARFGRLQKEVYDLDEEKSFAGFARGEAVEVLVPGTNRKVGYDPCKRIGVTFSKQGANRSIAMGAYVFALNHLSK	soluble
MSNILFKPTHLPISKPFHALLANILSEHQAKSEVQATSKEVVMNFRDSSYSAEDGGFHPVEIALSQSSDGQWCIEYITDFAYVGNHFPELERCLDFDFQRGDFFTAYHGWNPIVGNRDARELYQLWESNFLAYVATEAFDDISLTSAP	soluble
MSLQNADRLSREYVAGVNFLLSNQQDKAVDLFLEMLKEDSSAFEAHLTLGNLFRSRGEVERAIRIHQSLMESASLTFDQRLLATQQLGRDYMSAGLYDRAENMFAQLVNEKDFQENAFQSLLTIYQSTSDWKKAIDIAEKLVKSGKHDLREKIAHFYCELALQEMSGDDLDEAIGYLNKAVQADKNCARVSIMLGRLFMARQEYNKAADALKSVLEQDKQLVSEVLPILQECYQHQNQIDEWENFLKRCVEEDCGATAELLLADIIEQQKGHEVAQTYINHRLERHPTMRLFYRLMDYHLAEAEEGRAKESIILLRDMVGEQIRTKPNYRCHKCGFTSHSLYWHCPSCRSWDSIKPIRGLDGQEGHHHHHH	not soluble
GPGSMSNSGCGLPGDVDPDLPLTPDGVTYHVACSSERLADRIILVGDPDRVKMVSTYLDAGSIVYEASHREIKVVTGAYHGVPVTVLSTGMGTDNVEIVMNEVHILKEYDTQKRRWRARVGDDTPADPLETPFDPSRVKLIRVGTCGTPNDAVQIGCLAITRYAVGMDNTCQYYDAPAVNHTVDVKEVLAKVQATSLGKVQVYATKAAPAITQGLVDACTALNRKVGVSEQQPYYVGTTCSGSGFYGCQGRSVGRFRGHLTVPHLTEELGDLRFNVSEGEQRVANIEMENSALCYLSNLLGYQAGTVCVVIARRSRTNRAFATPEQLAKGLSHAITIALETLIKE	not soluble
MSLEQDKYLTVAAITKYIEKKFEVDPYMKQVFVRGEISNLKQPASGHLYFTVKDEFAMLRSVMFHKAVQKIGFVPEDGMNVLVTGRIGVFTKAGRYQFYAEHMEPDGVGALYIQLEQLKAQLEKEGLFAETHKKVLPSFPSKVAVVTSKTGAAVRDILTTIHRRMPSVEVIVYPTIVQGEKAAQKIVENIGKINQRNDIDVMIIGRGGGSLEELWAFNEEPVVRAVYDSDVPVISAVGHETDFALSDFSADVRAATPTAAAELAVPDYRDLEERLAERKYRLLAVTRQALERKERSLEQLKQHLILNGPKHQLEQQMERTDYFSERLNNAFSKQIFVKQTAFDRLNDRLHYYHPNKEIELQKEQMTLHLQALDKAMKQLLKDKQQSFFRQVDALEHLSPLSLLKRGFGVTYKENTLVKSVQELEVGDNIQVKMQGGHIDALITAKEEDISGNEGHHHHHH	soluble
MSLNEHKHNYNMKINCLLALALSASSLAAQDAVIRVDAGKVENKITPYLYGACMEDVNHEIYGGLYDQKIFGESFEEPVSMDNFIGFTRCEGVWKLQDGQLSVQAHPGAKLVYDDTQLSDGTVGVDLKFTNGTSSSNNAGLLLRVGEYGGGADNFDGYEVSLFADGKRLLLGKHLHNWQELKTTPVDVDPMQWNRMEVKLDGDELVILLNDCEVLRFEDRDTGLRNGKVAFRNWGADVSYRSLTIGSNTPVKLLTKATPQVSGMWDAFADLTAAAVYKQIADKPFHGRYAQEIEYLVGTGKVGIANRSLNRWGISVRQGEKKTGSLYLKGKAEVRVALQSVDGEKEYAVQCIRANAGDWKKYTFELTPDKTDENARLAIYLEEKGRIQVDMVTLMNGADRQFCGLPLRNDIGQAMVDQGLRFLRYGGTMVNAPEYRFKKMIGDRAERPPYKGHWYTYSTNGFGIEDFLHFCEKAGFMPAYAVNVEESAQDMADMIEYLNGSVDTKWGKKRAENGHPEPYGLKYLEIGNEEVIWGDIEADYQHYIDRFNDIYEAVHAKDPEVQFIHSAWWRPESPNMEKVFKALDGKAAYWDYHPWTDDLGSHVNIDRELTDMKAKFLKWNPKTSMRCAIFEENGNLHNVQRAIVHATVQNVVRRHGDFILTTCAANALQPYLQNDNGWDQGQIFFTSGQVWGMPTFYAQQMSSAHHHPLRLWSETVGELDMTATTNEARDEVILHVVNTSSEVRETQVSLSGFIPKGNMEIYTLSGELNDENLPDTPTWILPKATWKQAPGSDFTYSFPGYSYTIVVLKEGHHHHHH	soluble
MGSDKIHHHHHHMVTETYINKLLAPIRRRITGMLTRAVVSGIVEDLQRQNLQVKMHADESADNIERFQNYGMSSYPPEGAEAIVAALGGALSGLVAIAVEDKKFRPKGESGDVFLYHLEGHKIRLTKDGKIILTAQDVIFEIENSFTISTTDVIFNASGSFTIISPETLIDGPLHVTGDISTDLGITAVNGITSNSVITGSDLSANNISYLGHIHKDAENRPTTAPE	not soluble
MGSDKIHHHHHHMQLGTGLFTCQQRPDDDRETSEIYDEMLELGEVIDNAGLDSAWVSEHHFLDDDYLSGVTPALGALAAVTDNIEIGSCIALAPLYDSIRLAEDIATVDQISGGRTTLGMAIGSNVSEFDAFGIPDDERAERLADAVDTLRGAWSDGPLDYEPEFHDISSDVTVTPKPAHDVPLMLGGASRPAVRRAARTADAWCAPSSLSVDGVRKRVEDIRNVRDDEDIEGDFQVYVLQHGFIGDSREDAWAQMRDGYLYIQRRYEEIFSGETVAELDEERKQELKEQAIFGTPDQVTAELESYREALGDDIHFIFRTYHPGTGTQEMAECIRRLGEEVQPKIS	not soluble
VAITDNRGVITHVNEKFCDISQYEYYELVGTTHKIINSGFHPRSFFKQMWKTIAQGNIWKGEICNRTKQGKLYWVDTTIVPLKDNDGLLKNYISIRTDITQ	not soluble
MAGRAAVPEVIWSRPERTGRGPRPAYTRADIAAAAVRIADADGLDAVSMRRVAGELGCGTMSLYNYVPRKEDLYELMMDAVSGEHELWEPSGDWRADMIRVAHQTRALMHRHTWLPRLMSPVYGFSPNALRYLEHCLACLDPFEAPYGTKMELVAMVNGVVTTYVANEIATVERTRSLPWSEEQENAARIAYLGRQVASGAYPRLAASFAEDAGPIDLEGVFERALARVLDGFA	not soluble
MHHHHHHSSGRENLYFQGKLPEPQFYAEPHTYEEPGRAGRSFTREIEASRIHIEKIIGSGDSGEVCYGRLRVPGQRDVPVAIKALKAGYTERQRRDFLSEASIMGQFDHPNIIRLEGVVTRGRLAMIVTEYMENGSLDTFLRTHDGQFTIMQLVGMLRGVGAGMRYLSDLGYVHRDLAARNVLVDSNLVCKVSDFGLSRVLEDDPDAAYTTTGGKIPIRWTAPEAIAFRTFSSASDVWSFGVVMWEVLAYGERPYWNMTNRDVISSVEEGYRLPAPMGCPHALHQLMLDCWHKDRAQRPRFSQIVSVLDALIRSPESLRATATVS	soluble
GSQVQLVESGGGLVQAGGSLRLSCAASGYAYTYIYMGWFRQAPGKEREGVAAMDSGGGGTLYADSVKGRMTISRDKGKNTVYLQMDSMKPEDTATYYCAAGGYELRDRTYGQWGQGTQVTVSS	soluble
MESPIELAPDYYLENFFKLTHHAVTWYSDLLTEEEHAWLCSFDSLNKHAQCLLVRLYSRKGCWFRSDKLNYQEIPLIDAALAELGGQDFISLSPPLSHQEVAANLLTKPEISALYPELPKSLKKDALVERLSNTEFDRVEQLEFTIVRLNSAHMIDVLLTLFFANTHQDLSQFVLDDLGLHQFEQYQLSKVRRFFNSREQIDRLIELSQLANLYWQFDRKDKANLDLLIEAMPHPVHHPYVDRKREHMLNDIARDYERIDELETALSLFGQTQLTPSRERRARIYDKLNHDDLFSDIVTEMLHSPIDVSELEVAQKLEQRLKRKQGEKVPRVTKPTCMEYRVELDLSQQRVELASKAHFESLGWSVFYAENALLNALLGLTFWDAIFAPIEGAFINAYQHRPLDLYHSDFVAKRQALIDEAFAQLKLGNTQAILTKYDEKFGISNPFVQWSLIGKELLEQSLNTIPTRTLLELFKVQLSDLKLYRNGMPDLIAFRDNEFEWIEVKGPGDKLQDNQWRWIKEFSRLNVPFAVCYVTARKEDEKRVD	not soluble
MSLTTDWTTQVAAAAASVTAAEVDTARRALDYLCLAQLYLRDNVTLSTPLQPGHVKPAPAGHWGVCPPVNAVLAALGPYRRMPGTDVRVVHGGGHAGPSALAHAWITGALDTGEDAFGHTEVDLARLCAQFPRTRFGGEITPLIPGHDHLGGQLGPALAIAHGMGLDAPDRLVVAVIGDGECETGATAAAWLGARALIGTGTHGRVLPVILANGLRMGSASLLAALDPCDLARHLGGLGYEVITAGPSTDEITAAVARALTGLRPLQYGPSTVVVVTVDKGHGVPKTVAGQQIAQTPRVHKVPLRNPRDDNAEFVALERWLSGYRPQELFTGGAPTATVRRALAPAATGRVELHAPRGCIAAASAVADRVAGADFGAAITATLRELNTVYGLRVFSPDELASNRIELGAPDSGWTIEVLNEELCHAWAQGYQATGRRGVVVGYEAFAPITASLLAQQLLAHRLAAAAGRPPGPSLVYLLTSLGWHNTITHANPGLIDIAIGTADPSVHIYLPADATRTAAALTFAVRKLGRASLVVASKHPMPAHPHTTIDAELRDGYAVWPHIADDLDPEMVLVSIGDIAARELTRAATTITATRTATRLRYLHIHDLTSLGAPGRRDAAISAADFERLFPPGAAVLIATTCHPAAVHALLGERGAPRTVVVRGWANPPLPMSHDELLDHTGIAATALHEAALALLDSTTCDPLIRQGAREGHHHHHH	soluble

Source: the DeepSol protein solubility set
